± gives the standard deviation of the averaged measurements.
B1: library; numbered along this chain (parent)
chain: MNIQIGELAKRTACPVVTIRFYEQEGLLPPPGRSRGNFRLYGEEHVERLQFIRHCRSLDMPLSDVRTLLSYRKRPDQDCGEVNMLLDEHIRQVESRIGALLELKHHLVELREACSGARPAQSCGILQGLSDCVCDTRGTTAHPSD

Key:
[1] = variants of: B1; test: sfGFP reporter fluorescence (15 h) (µM FITC); higher = higher leak; conditions: library round: Round 0; ligand: none
In short: (§1)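 Values are endpoint sfGFP fluorescence given as µM FITC equivalents. Fluorescence was read at 485/528 nm on a Synergy Neo2, and FITC standard curves were prepared in 50 mM sodium borate pH 8.5. Reactions of 1 μL combined BL21 Star (DE3) PANOx-SP extract, pPbrR-sfGFP reporter, 30 μg/mL GamS and linear PbrR templates (PCR-made, Echo-normalized to 5 nM), with 1 µM lead chloride, 30 µM zinc acetate or no metal, for 15 hr at 30 °C.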

[2] = variants of: B1; test: sfGFP reporter fluorescence (15 h) (µM FITC); higher = stronger transcriptional activation; conditions: library round: Round 0
In short: as §1

Variant	sfGFP reporter fluorescence [1]	sfGFP reporter fluorescence ([2]; ligand: 1 µM Pb)	sfGFP reporter fluorescence ([2]; ligand: 30 µM Zn)
D135Q	0.0574 ± 0.0023	0.0826 ± 0.0023	1.28 ± 0.13
D135V	0.059 ± 0.001	0.081 ± 0.0015	1.06 ± 0.13
D135I	0.0614 ± 0.0018	0.0927 ± 0.0031	1.72 ± 0.18
D131Q	0.06432 ± 0.00026	0.124 ± 0.0029	1.26 ± 0.24
D131H	0.0621 ± 0.0013	0.0957 ± 0.0026	0.996 ± 0.034
I3P	0.0592 ± 0.0018	0.0583 ± 0.0036	0.0546 ± 0.0026
I3H	0.059 ± 0.001	0.0707 ± 0.0021	0.356 ± 0.01
I3D	0.06139 ± 0.00026	0.06011 ± 0.00052	0.08118 ± 0.00078
I3T	0.0597 ± 0.001	0.0667 ± 0.0047	0.331 ± 0.011
I3V	0.0619 ± 0.001	0.124 ± 0.0044	1.32 ± 0.025
I3A	0.0544 ± 0.0049	0.0594 ± 0.001	0.339 ± 0.0078
I3F	0.05552 ± 0.00026	0.0643 ± 0.0029	0.587 ± 0.019
D64K K104V L107C G128I	2.19 ± 0.12	4.16 ± 0.23	3.35 ± 0.64
I125N	0.0581 ± 0.00078	0.0581 ± 0.00078	0.055 ± 0.0015
I125R	0.0608 ± 0.0026	0.0603 ± 0.0013	0.0575 ± 0.0021
C114S	0.05754 ± 0.00052	0.05809 ± 0.00026	0.0544 ± 0.0018
C114D	0.0585 ± 0.00078	0.0588 ± 0.0018	0.0564 ± 0.0036
C114N	0.0583 ± 0.0021	0.0579 ± 0.0015	0.0546 ± 0.0015
D87A	0.0596 ± 0.0049	0.0652 ± 0.0015	0.393 ± 0.011
M60L P61N D64K	0.611 ± 0.025	1.74 ± 0.19	3.74 ± 0.11
L58W	0.0629 ± 0.0034	0.0685 ± 0.0026	0.076 ± 0.0023
L58D	0.0599 ± 0.0023	0.0623	0.0608 ± 0.0015
L58K	0.0629 ± 0.0013	0.06908 ± 0.00026	0.0735 ± 0.0034

Variant	sfGFP reporter fluorescence [1]	sfGFP reporter fluorescence ([2]; ligand: 1 µM Pb)	sfGFP reporter fluorescence ([2]; ligand: 30 µM Zn)
L58Y	0.0784 ± 0.0062	0.229 ± 0.011	0.606 ± 0.036
L58S	0.05717 ± 0.00052	0.0586	0.0563 ± 0.0013
L62H	0.06285 ± 0.00026	0.0638 ± 0.001	0.0918 ± 0.0049
L62N	0.061 ± 0.00078	0.0632 ± 0.00078	0.08008 ± 0.00026
L62Y	0.0599 ± 0.0023	0.0623 ± 0.00052	0.0748 ± 0.0057
L62F	0.0599 ± 0.0023	0.0652 ± 0.0015	0.168 ± 0.0039
L62T	0.0607 ± 0.0034	0.0674 ± 0.0031	0.133 ± 0.0031
L62P	0.06194 ± 0.00052	0.06487 ± 0.00052	0.0993 ± 0.0042
R33V	0.0607 ± 0.00078	0.05937 ± 0.00052	0.0696 ± 0.0021
R33F	0.0599 ± 0.0018	0.061 ± 0.0029	0.0665 ± 0.0044
E112R	0.0658 ± 0.00078	0.107 ± 0.0088	1.53 ± 0.029
E112L	0.0603 ± 0.00078	0.0867 ± 0.0034	0.851 ± 0.048
E112D	0.0612 ± 0.0021	0.0722 ± 0.0026	0.565 ± 0.043
E112K	0.0706 ± 0.00078	0.1164 ± 0.00078	2.4 ± 0.25
M60L K104V G128M	0.69 ± 0.028	1.46 ± 0.085	2.91 ± 0.039
T140A	0.0614 ± 0.0013	0.0726 ± 0.0015	0.5 ± 0.039
P15S	0.0621 ± 0.0029	0.0883 ± 0.0052	0.802 ± 0.01
P15L	0.0667	0.0938 ± 0.0036	1.06 ± 0.078
P15I	0.06047 ± 0.00052	0.0612 ± 0.0015	0.288 ± 0.026
P15W	0.061 ± 0.0013	0.06139 ± 0.00026	0.06634 ± 0.00052
P15D	0.066 ± 0.0057	0.0689 ± 0.0021	0.286 ± 0.008
P15C	0.0656 ± 0.0052	0.0826 ± 0.0018	0.5684 ± 0.001

From the supplement of paper PMC12783771
